According to publication PMC3567243 (Molecular Microbiology, 2012):

Tested on: CC1=CC(=O)c2ccccc2C1=O
Experiment: purified protein

## (Mycobacterium tuberculosis H37Rv)
  Km: 17.29 ± 11.63 µM
  kcat/Km: 94500 M⁻¹ s⁻¹
